Measurements: patent US20260234234A1 (QILU PUGET SOUND BIOTHERAPEUTICS, published 2026)

T1: hST2-Fc protein from R&D Systems (cat no. 523-ST-100) (human, UniProt Q01638 19-328, limits assumed)
T1 construct: Bought reagent; also called human ST2
T1 sequence (looked up): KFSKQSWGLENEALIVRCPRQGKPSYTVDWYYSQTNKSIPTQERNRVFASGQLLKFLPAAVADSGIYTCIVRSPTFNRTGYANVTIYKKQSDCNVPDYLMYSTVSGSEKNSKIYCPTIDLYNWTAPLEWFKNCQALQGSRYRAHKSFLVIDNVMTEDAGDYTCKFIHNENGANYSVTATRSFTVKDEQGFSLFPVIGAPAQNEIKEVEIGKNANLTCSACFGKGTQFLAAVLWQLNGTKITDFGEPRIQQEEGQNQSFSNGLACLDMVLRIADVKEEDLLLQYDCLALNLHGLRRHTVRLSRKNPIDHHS

T2: His6-tagged cyIL-33 (Ser112-Ile270), QB10976 (cynomolgus monkey)
T2 construct: Entry includes N-terminal Avitag, FLAG and His6 tags; isoform X1, NCBI XP_005581824; also called cyIL-33 antigen
T2 chain: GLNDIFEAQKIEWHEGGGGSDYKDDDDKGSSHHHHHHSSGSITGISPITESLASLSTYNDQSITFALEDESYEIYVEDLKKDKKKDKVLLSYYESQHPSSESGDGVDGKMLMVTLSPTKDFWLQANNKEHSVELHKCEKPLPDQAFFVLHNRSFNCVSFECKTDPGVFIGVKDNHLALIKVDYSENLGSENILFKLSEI

B1: Avitag_c-MYC_His6-tagged hIL-33 (Ser112-Thr270), QB10975 (ligand)
chain: GLNDIFEAQKIEWHEGGGGSEQKLISEEDLGSSHHHHHHSSGSITGISPITEYLASLSTYNDQSITFALEDESYEIYVEDLKKDEKKDKVLLSYYESQHPSNESGDGVDGKMLMVTLSPTKDFWLHANNKEHSVELHKCEKPLPDQAFFVLHNMHSNCVSFECKTDPGVFIGVKDNHLALIKVDSSENLCTENILFKLSET
notes: Entry includes N-terminal Avitag, c-MYC and His6 tags; reduced with DTT to the active form; also called active hIL-33; reduced hIL-33
B2: chimeric anti-hIL-33 antibody QB10998 (antibody, human IgG1, kappa, V domains shown)
VH: EVMLVESGGGLVKPGGSLKLSCAASGFTFYSSAMSWVRQTPEKRLEWVATISSGGSNTYYPDSVKGRFTISRDNAKNTLYLQMSSLGSEDTAMYYCASAYYGRRYDAMDYWGQGTSVTVSS
VL: DIVMTQAAPSIPVTPGESVSISCKSSKSLLHSNGNTYLYWFLQRPGQSPQLLIYRMSNLASGVPDRFSGSGSGTAFTLRISRVEAEDVGVYYCMQHLENPYTFGGGTKLELNR
notes: Text says murine VH on human IgG4 constant regions; the printed HC entry looks like IgG1; also called chimeric antibody
B3: anti-hIL-33 IgG1 antibody QB11421 (antibody)
heavy: EVQLLESGGGLVQPGGSLRLSCAASGFTFYSSAMSWFRQTQGKGLEWVSTISSGGSNTYYPDSVKGRFTISRDNSKNTLYLQMNSLGAEDTAVYYCASAYYGRRYDAMDYWGQGTLVTVSSASTKGPSVFPLAPSSKSTSGGTAALGCLVKDYFPEPVTVSWNSGALTSGVHTFPAVLQSSGLYSLSSVVTVPSSSLGTQTYICNVNHKPSNTKVDKKVEPKSCDKTHTCPPCPAPEAAGGPSVFLFPPKPKDTLMISRTPEVTCVVVDVSHEDPEVKFNWYVDGVEVHNAKTKPREEQYNSTYRVVSVLTVLHQDWLNGKEYKCKVSNKALAAPIEKTISKAKGQPREPQVYTLPPSREEMTKNQVSLTCLVKGFYPSDIAVEWESNGQPENNYKTTPPVLDSDGSFFLYSKLTVDKSRWQQGNVFSCSVMHEALHNHYTQKSLSLSPGK
light: DVVMTQSPPSLPVTLGQSASISCKSSESLLHSNANTYLYWFQQRPGQSPQLLIYRGSNLASGVPDRFSGSGSGTDFTLKISRVEAEDVGVYYCMQHLRNPYTFGQGTKVEIKRTVAAPSVFIFPPSDEQLKSGTASVVCLLNNFYPREAKVQWKVDNALQSGNSQESVTEQDSKDSTYSLSSTLTLSKADYEKHKVYACEVTHQGLSSPVTKSFNRGEC
notes: IgG1 L234A, L235A, P329A; also called top clone as IgG1

How the values were obtained:
[1] = molecular target: T1, hST2-Fc protein from R&D Systems (cat …); assay: SPR, hST2-Fc immobilised on CM5, RU against hIL-33 concentration, 2 min association; 2 min association
Description: (§1) Assessment was performed by SPR (Surface Plasmon Resonance) using Biacore 2000. The x-axis represents antibody concentration (nM), the y-axis represents the Response Units (RU) after correction by blank buffer.
(§2) The binding capacity as Response Units (RU) was recorded.

[2] = molecular target: T1, hST2-Fc protein from R&D Systems (cat …); assay: SPR, hST2-Fc immobilised on CM5, RU against hIL-33 concentration, 1 min association; 1 min association
Description: as §1, §2

[3] = molecular target: B1; assay: SPR (Biacore) blocking: mAb premixed with 10 nM hIL-33, flowed over ST2-Fc on a CM5 chip; blocked partner ST2-Fc
Description: (§3) Assessment was performed by SPR (Surface Plasmon Resonance) using Biacore 2000.
(§4) The association time was set for 2 min and the dissociation time for 5 min.

[4] = molecular target: B1; assay: SPR competition, antibody titrated against 10 nM hIL-33, over immobilised hST2-Fc
Description: as §3, §4

[5] = molecular target: T2, His6-tagged cyIL-33 (Ser112-Ile270), …; assay: SPR, Biacore T200
[6] = molecular target: T2, His6-tagged cyIL-33 (Ser112-Ile270), …; assay: SPR, cyIL-33 analyte
Description: (§5) The kinetic binding data was obtained using SPR on a Biacore T200 equipment. […] The complex was allowed to associate for 3 min and dissociate for up to 1 hr. At the end of each cycle the CM4 chips were regenerated with 10 mM glycine pH1.5. The T200 Evaluation software V3.2 was used to align and double reference the data. The results were fit to a 1:1 binding model using the global data analysis option within the software.

[7] = molecular target: B1; assay: SPR, captured antibody, hIL-33 analyte, 37 C, 1:1 fit
Description: (§6) The polyclonal goat-anti-human IgG (Fc specific) antibodies were immobilized on a CM4 chip surface using a standard amine coupling method. […] After each cycle, the chip was regenerated with 10 mM glycine-HCl, pH 1.5. The results were analyzed using Biacore T200 evaluation software V3.2. Results were double referenced and fit to a 1:1 interaction model.
(§7) The kinetic binding data was obtained using SPR on a Biacore T200 equipment. […] The complex was allowed to associate for 3 min and dissociate for up to 1 hr. At the end of each cycle the CM4 chips were regenerated with 10 mM glycine pH1.5. The T200 Evaluation software V3.2 was used to align and double reference the data.

[8] = molecular target: T2, His6-tagged cyIL-33 (Ser112-Ile270), …; assay: SPR, captured antibody, cyIL-33 analyte, 25 C, 1:1 fit
Description: as §6, §7

[9] = molecular target: B1; assay: SPR
Description: as §5

Binder: B1
EC50 [1]: 5.17 nM
EC50 [2]: 10.8 nM

Binder: B2
IC50 [3]: 1.01 nM
IC50 [4]: 1.5 nM
binding result [5]: binds

Binder: B3
fold improvement of affinity against parental antibody QB11119 [6]: ~3 fold
Kd [7]: 0.207 nM
koff [7]: 0.000669 s⁻¹
kon [7]: 3.23e+06 M⁻¹ s⁻¹
Kd [8]: 4.89 nM
koff [8]: 0.00188 s⁻¹
kon [8]: 384000 M⁻¹ s⁻¹
fold increase of affinity against parental antibody QB11119 [9]: ~2 fold
